Source: publication PMC5677370, “Structure-based nuclear import mechanism of histones H3 and H4 mediated by Kap123” (eLife, 2017)

Experiments:
MBP-tagged Kap123 = assay: amylose affinity pull-down competition assay; conditions: pre-assembled MBP-Kap123 and H3 1-59-Sumo, value at 0X set to 1.0, read off a plot
[1] = target: full-length Kluyveromyces lactis (Kl) Kap123, wild type (Kluyveromyces lactis); assay: SPR; wild-type Kl Kap123 immobilised on a CM5 chip (10 mM acetate pH 4.0); wild-type or mutant H3 or H4 peptides injected at 30 μl/min in binding buffer (10 mM HEPES, 150 mM NaCl); 7°C

Chain of MBP-tagged Kap123 (chain, as listed by the source): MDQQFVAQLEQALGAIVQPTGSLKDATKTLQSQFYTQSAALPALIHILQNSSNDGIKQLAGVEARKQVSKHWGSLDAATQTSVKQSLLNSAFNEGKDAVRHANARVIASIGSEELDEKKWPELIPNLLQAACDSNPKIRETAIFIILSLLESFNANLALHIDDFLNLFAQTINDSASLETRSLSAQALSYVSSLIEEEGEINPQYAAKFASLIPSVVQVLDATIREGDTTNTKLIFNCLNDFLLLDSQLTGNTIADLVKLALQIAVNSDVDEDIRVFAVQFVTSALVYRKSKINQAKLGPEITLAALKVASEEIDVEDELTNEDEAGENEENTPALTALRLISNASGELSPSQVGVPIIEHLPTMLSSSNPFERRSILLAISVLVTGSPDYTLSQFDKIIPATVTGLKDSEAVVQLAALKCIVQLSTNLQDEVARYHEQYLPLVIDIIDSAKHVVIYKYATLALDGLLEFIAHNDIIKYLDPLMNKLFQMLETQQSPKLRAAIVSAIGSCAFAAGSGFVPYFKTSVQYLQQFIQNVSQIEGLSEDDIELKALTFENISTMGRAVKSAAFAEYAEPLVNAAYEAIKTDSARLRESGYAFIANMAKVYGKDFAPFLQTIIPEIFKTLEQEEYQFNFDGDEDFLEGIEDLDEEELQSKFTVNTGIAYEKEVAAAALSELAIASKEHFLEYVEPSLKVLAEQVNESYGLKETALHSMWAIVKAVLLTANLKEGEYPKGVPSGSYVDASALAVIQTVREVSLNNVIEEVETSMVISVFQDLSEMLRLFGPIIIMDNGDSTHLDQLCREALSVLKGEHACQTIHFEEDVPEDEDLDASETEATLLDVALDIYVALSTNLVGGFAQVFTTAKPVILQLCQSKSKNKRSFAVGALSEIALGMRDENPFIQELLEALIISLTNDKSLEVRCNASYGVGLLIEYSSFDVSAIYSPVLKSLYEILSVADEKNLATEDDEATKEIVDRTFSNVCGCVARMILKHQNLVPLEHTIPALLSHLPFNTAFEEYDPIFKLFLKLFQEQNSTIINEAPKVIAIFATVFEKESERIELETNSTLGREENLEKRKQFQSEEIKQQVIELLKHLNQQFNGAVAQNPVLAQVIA

| other: relative intensity of H3 1-59-Sumo remaining bound to Kap123 after competition (MBP-tagged Kap123; competitor at 1X, parent: est. 0.88) | other: relative intensity of H3 1-59-Sumo remaining bound to Kap123 after competition (MBP-tagged Kap123; competitor at 2X, parent: est. 0.67) | other: relative intensity of H3 1-59-Sumo remaining bound to Kap123 after competition (MBP-tagged Kap123; competitor at 5X, parent: est. 0.32) | other: relative intensity of H3 1-59-Sumo remaining bound to Kap123 after competition (MBP-tagged Kap123; competitor at 10X, parent: est. 0.13) | fold affinity relative to H4-NLS [1] [fold] | Substance |
| --- | --- | --- | --- | --- | --- |
| 0.99 | 0.99 | 0.94 | 0.96 | – | C-terminal Sumo-tagged histone H4_(1–48), P02309 K5Q; K8Q; K12Q |
| – | – | – | – | 5 | wild-type H3_(1–35)-NLS peptide (injected as analyte) (from UniProt P61830 2-36) |
